In this assay the target is T1, FS-EEE-mFc (human, UniProt P19883 30-344, K76 mutagenized to glutamic acid | K81 mutagenized to glutamic acid | K82 …).
T1 construct: follistatin FS315, human, with K76, K81 and K82 changed to glutamic acid; FS315 cDNA (Clontech) cloned in frame to murine IgG1 Fc cDNA; also called engineered follistatin; FST-EEE-mFc
Briefly: SPR; surface plasmon resonance method as in ref. 48; which partner was immobilised and the conditions are not told. Conditions: both partners purified. (In general: Surface plasmon resonance follows binding to a sensor surface in real time, without labels.)

1 molecule from publication PMC6204036, “Myostatin and activin blockade by engineered follistatin results in hypertrophy and improves dystrophic pathology in mdx mouse more than myostatin blockade alone” (Skeletal Muscle, 2018) can be followed below.

Usually Kd stands for the concentration at which binding is half-saturated. A lower Kd goes with higher affinity.

T1 sequence (P19883 other isoform, or with tags, fused parts or gaps with the stated changes): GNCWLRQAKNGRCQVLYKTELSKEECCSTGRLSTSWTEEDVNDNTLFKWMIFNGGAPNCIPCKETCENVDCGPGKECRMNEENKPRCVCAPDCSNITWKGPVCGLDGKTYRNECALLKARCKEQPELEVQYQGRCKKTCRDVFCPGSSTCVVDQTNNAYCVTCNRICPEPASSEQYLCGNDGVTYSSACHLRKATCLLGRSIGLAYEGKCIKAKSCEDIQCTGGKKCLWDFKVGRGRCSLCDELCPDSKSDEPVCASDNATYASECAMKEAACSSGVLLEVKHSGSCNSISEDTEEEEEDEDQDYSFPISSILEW

B1: activin A (ligand, UniProt P08476 311-426, looked up)
chain: GLECDGKVNICCKKQFFVSFKDIGWNDWIIAPSGYHANYCEGECPSHIAGTSGSSLSFHSTVINHYRMRGHSPFANLKSCCVPTKLRPMSMLYYDDGQNIIKKDIQNMIVEECGCS
notes: activin A (inhibin beta A chain), the ligand used in SPR
Regarding B1, the affinity, expressed as Kd, was 6.1 pM.
